Assay results as given in US5968815.

What was measured:
[1] = target: Nef (SIV) peptide 1-15 (SIV strain Mac251)
[2] = target: Nef (SIV) peptide 16-30 (SIV strain Mac251)
[3] = target: Nef (SIV) peptide 221-235 (SIV strain Mac251)
[4] = target: Nef (SIV) peptide 84-96 (SIV strain Mac251)
[5] = target: Nef (SIV) peptide 40-60 (SIV strain Mac251)
mouse CD8 (LYT2) (mouse) = mouse CD8 (LYT2) (mouse) (UniProt P01731)
mouse CD4 (L3T4) (mouse) = mouse CD4 (L3T4) (mouse) (UniProt P06332)

Substance: lymph node cells of Balb/c mice immunised with non-recombinant BCG strain 1173P2 (cells without a defined receptor)
- proliferation of lymph node cells (cpm) [1]: < 2500 cpm
- proliferation of lymph node cells (cpm) [2]: < 2500 cpm
- proliferation of lymph node cells (cpm) [3]: < 2500 cpm
- proliferation of lymph node cells (cpm) [4]: 5000 cpm
- proliferation of lymph node cells (cpm) [5]: < 2500 cpm

Substance: anti-CD8 monoclonal antibody, hybridoma H35 17-2 (rat anti-mouse LYT2)
- inhibition of the proliferative response of LN cells to beta-galactosidase (mouse CD8 (LYT2) (mouse)): 30%

Substance: anti-CD4 monoclonal antibody, hybridoma GK 1-5 (rat anti-mouse L3T4)
- inhibition of the proliferative response of LN cells to beta-galactosidase (mouse CD4 (L3T4) (mouse)): 70%

Substance: lymph node cells of unimmunized rats (control of FIG. 14) (cells without a defined receptor)
- proliferation of lymph node cells (cpm) [1]: < 250 cpm
- proliferation of lymph node cells (cpm) [2]: < 250 cpm
- proliferation of lymph node cells (cpm) [3]: < 250 cpm
- proliferation of lymph node cells (cpm) [4]: < 250 cpm
- proliferation of lymph node cells (cpm) [5]: < 250 cpm
